Source: patent US20200199204A1 (UNITED STATES OF AMERICA AS REPRESENTED BY THE SECRETARY …, published 2020)

How the values were obtained:
Assay in all cases: cell-based or functional assay
HIV-1 Env of CAP256.PI = HIV-1 Env of CAP256.PI (HIV-1)
HIV-1 Env of CAP256.SU = HIV-1 Env of CAP256.SU (HIV-1)
HIV-1 Env of 96ZM651.02 = HIV-1 Env of 96ZM651.02 (HIV-1)
HIV-1 Env of CAP210.E8 = HIV-1 Env of CAP210.E8 (HIV-1)
HIV-1 Env of CAP244.D3 = HIV-1 Env of CAP244.D3 (HIV-1)
HIV-1 Env of CAP45.G3 = HIV-1 Env of CAP45.G3 (HIV-1)
HIV-1 Env of DU156.12 = HIV-1 Env of DU156.12 (HIV-1)
HIV-1 Env of DU172.17 = HIV-1 Env of DU172.17 (HIV-1)
HIV-1 Env of DU422.01 = HIV-1 Env of DU422.01 (HIV-1)
HIV-1 Env of ZM109.4 = HIV-1 Env of ZM109.4 (HIV-1)
HIV-1 Env of ZM135.10a = HIV-1 Env of ZM135.10a (HIV-1)
HIV-1 Env of ZM197.7 = HIV-1 Env of ZM197.7 (HIV-1)
HIV-1 Env of ZM214.15 = HIV-1 Env of ZM214.15 (HIV-1)
HIV-1 Env of ZM233.6 = HIV-1 Env of ZM233.6 (HIV-1)
HIV-1 Env of ZM249.1 = HIV-1 Env of ZM249.1 (HIV-1)
HIV-1 Env of ZM53.12 = HIV-1 Env of ZM53.12 (HIV-1)
HIV-1 Env of 0260.v5.c36 = HIV-1 Env of 0260.v5.c36 (HIV-1)
HIV-1 Env of BG505.w6m = HIV-1 Env of BG505.w6m (HIV-1)
HIV-1 Env of KER2008.12 = HIV-1 Env of KER2008.12 (HIV-1)
HIV-1 Env of KER2018.11 = HIV-1 Env of KER2018.11 (HIV-1)
HIV-1 Env of MB201 = HIV-1 Env of MB201 (HIV-1)
HIV-1 Env of MB539.2B7 = HIV-1 Env of MB539.2B7 (HIV-1)
HIV-1 Env of Q168.a2 = HIV-1 Env of Q168.a2 (HIV-1)
HIV-1 Env of Q23.17 = HIV-1 Env of Q23.17 (HIV-1)
HIV-1 Env of Q259.d2.17 = HIV-1 Env of Q259.d2.17 (HIV-1)
HIV-1 Env of Q461.e2 = HIV-1 Env of Q461.e2 (HIV-1)
HIV-1 Env of Q769.d22 = HIV-1 Env of Q769.d22 (HIV-1)
HIV-1 Env of Q842.d12 = HIV-1 Env of Q842.d12 (HIV-1)
HIV-1 Env of RW020.2 = HIV-1 Env of RW020.2 (HIV-1)
HIV-1 Env of UG037.8 = HIV-1 Env of UG037.8 (HIV-1)
HIV-1 Env of 6535.3 = HIV-1 Env of 6535.3 (HIV-1)
HIV-1 Env of AC10.29 = HIV-1 Env of AC10.29 (HIV-1)
HIV-1 Env of CAAN.A2 = HIV-1 Env of CAAN.A2 (HIV-1)
HIV-1 Env of PVO.04 = HIV-1 Env of PVO.04 (HIV-1)
HIV-1 Env of QH0692.42 = HIV-1 Env of QH0692.42 (HIV-1)
HIV-1 Env of REJO.67 = HIV-1 Env of REJO.67 (HIV-1)
HIV-1 Env of RHPA.7 = HIV-1 Env of RHPA.7 (HIV-1)
HIV-1 Env of SC422.8 = HIV-1 Env of SC422.8 (HIV-1)
HIV-1 Env of THRO.18 = HIV-1 Env of THRO.18 (HIV-1)
HIV-1 Env of TRJO.58 = HIV-1 Env of TRJO.58 (HIV-1)
HIV-1 Env of TRO.11 = HIV-1 Env of TRO.11 (HIV-1)
HIV-1 Env of WITO.33 = HIV-1 Env of WITO.33 (HIV-1)
HIV-1 Env of 191821.E6.1 = HIV-1 Env of 191821.E6.1 (HIV-1)
HIV-1 Env of 3016.V5.c36 = HIV-1 Env of 3016.V5.c36 (HIV-1)
HIV-1 Env of 6405.v4.c34 = HIV-1 Env of 6405.v4.c34 (HIV-1)
HIV-1 Env of C1080.c3 = HIV-1 Env of C1080.c3 (HIV-1)
HIV-1 Env of CM244.ec1 = HIV-1 Env of CM244.ec1 (HIV-1)

Measured: neutralization IC50

B1: CAP256-VRC26.07 (antibody, V domains shown)
VH: EVQLVESGGGVVQPGRSLRLSCVGSQFSFNRYGMHWVRQAPGKGLEWVAGISFDGTDRYHADNVWGRFTISRDNSKNTLYLQMSSLRAEDTALYYCAKDLREDECEEWWSDYYDFGKKLPCRKSRGVAGVFDKWGQGTMVTVSS
VL: QAVLTQPPSVSAAPGQNVTISCSGSGSNIGNNFVSWYQQRPGTAPKLLIYESNKRPSGIPDRFSGSKSGTSATLAITGLQTGDEAYYYCATWAARLNSARVFGTGTMVTVLG
0.014 µg/mL: HIV-1 Env of ZM53.12
44.1 µg/mL: HIV-1 Env of ZM249.1
0.008 µg/mL: HIV-1 Env of CAP256.SU
40.1 µg/mL: HIV-1 Env of CM244.ec1
3.1 µg/mL: HIV-1 Env of KER2018.11
> 50 µg/mL: HIV-1 Env of CAP256.PI | HIV-1 Env of 96ZM651.02 | HIV-1 Env of CAP244.D3 | HIV-1 Env of CAP45.G3 | HIV-1 Env of DU156.12 | HIV-1 Env of DU172.17 | HIV-1 Env of DU422.01 | HIV-1 Env of ZM109.4 | HIV-1 Env of ZM135.10a | HIV-1 Env of ZM197.7 | HIV-1 Env of ZM214.15 | HIV-1 Env of ZM233.6 | HIV-1 Env of 0260.v5.c36 | HIV-1 Env of BG505.w6m | HIV-1 Env of KER2008.12 | HIV-1 Env of MB201 | HIV-1 Env of MB539.2B7 | HIV-1 Env of Q168.a2 | HIV-1 Env of Q23.17 | HIV-1 Env of Q461.e2 | HIV-1 Env of Q769.d22 | HIV-1 Env of Q842.d12 | HIV-1 Env of RW020.2 | HIV-1 Env of UG037.8 | HIV-1 Env of 6535.3 | HIV-1 Env of AC10.29 | HIV-1 Env of CAAN.A2 | HIV-1 Env of PVO.04 | HIV-1 Env of QH0692.42 | HIV-1 Env of REJO.67 | HIV-1 Env of RHPA.7 | HIV-1 Env of SC422.8 | HIV-1 Env of THRO.18 | HIV-1 Env of TRJO.58 | HIV-1 Env of TRO.11 | HIV-1 Env of WITO.33 | HIV-1 Env of 191821.E6.1 | HIV-1 Env of 3016.V5.c36 | HIV-1 Env of 6405.v4.c34 | HIV-1 Env of C1080.c3
42.5 µg/mL: HIV-1 Env of Q259.d2.17
0.021 µg/mL: HIV-1 Env of CAP210.E8

B2: CAP256-VRC26.08 (antibody, V domains shown)
VH: EVQLVESGGGVVQPGRSLTLSCAASQFTFSNYGMHWVRQAPGKGLEWVASVSNDGTKKYHGDSVWGRFTISRDNSKNTLFLQMSSLRAEDTAVYFCVRDQREDECEEWWSDYYDFGRELPCRKFRGLGLAGIFDIWGHGTMVTVSS
VL: QSALTQPPSVSAAPGQKVTISCSGNSSNIGNNFVSWYQQVPGTAPKLLLYETYRRPSGIPDRFSGSKSGTSATLAITGLQTGDEADYYCTVWGVRKGVGAVFGTGTKVTVLG
0.969 µg/mL: HIV-1 Env of Q461.e2
0.008 µg/mL: HIV-1 Env of DU422.01 | HIV-1 Env of ZM197.7
13.3 µg/mL: HIV-1 Env of Q23.17
0.012 µg/mL: HIV-1 Env of C1080.c3
0.143 µg/mL: HIV-1 Env of BG505.w6m
> 50 µg/mL: HIV-1 Env of CAP256.PI | HIV-1 Env of CAP244.D3 | HIV-1 Env of DU172.17 | HIV-1 Env of ZM109.4 | HIV-1 Env of ZM135.10a | HIV-1 Env of ZM214.15 | HIV-1 Env of 0260.v5.c36 | HIV-1 Env of KER2008.12 | HIV-1 Env of MB201 | HIV-1 Env of Q769.d22 | HIV-1 Env of RW020.2 | HIV-1 Env of UG037.8 | HIV-1 Env of 6535.3 | HIV-1 Env of AC10.29 | HIV-1 Env of CAAN.A2 | HIV-1 Env of QH0692.42 | HIV-1 Env of REJO.67 | HIV-1 Env of RHPA.7 | HIV-1 Env of SC422.8 | HIV-1 Env of THRO.18 | HIV-1 Env of TRJO.58 | HIV-1 Env of TRO.11 | HIV-1 Env of WITO.33 | HIV-1 Env of 6405.v4.c34
11.8 µg/mL: HIV-1 Env of PVO.04
40.4 µg/mL: HIV-1 Env of Q842.d12
4.69 µg/mL: HIV-1 Env of CAP45.G3
0.004 µg/mL: HIV-1 Env of ZM53.12
0.256 µg/mL: HIV-1 Env of Q168.a2
31.7 µg/mL: HIV-1 Env of MB539.2B7
1.09 µg/mL: HIV-1 Env of CM244.ec1
0.003 µg/mL: HIV-1 Env of CAP256.SU | HIV-1 Env of KER2018.11
0.37 µg/mL: HIV-1 Env of 191821.E6.1
0.059 µg/mL: HIV-1 Env of DU156.12
0.013 µg/mL: HIV-1 Env of 3016.V5.c36
2.82 µg/mL: HIV-1 Env of 96ZM651.02
0.076 µg/mL: HIV-1 Env of ZM249.1
0.009 µg/mL: HIV-1 Env of Q259.d2.17
0.006 µg/mL: HIV-1 Env of CAP210.E8
